Key:
[1] = molecular target: monkey FcRn (monkey (cynomolgus monkeys in the same paragraph)) (UniProt Q8SPV9)
[2] = molecular target: human neonatal Fc receptor (FcRn) (human) (UniProt P55899)
[3] = molecular target: monkey FcRn (monkey (cynomolgus monkeys in the same paragraph)) (UniProt Q8SPV9); remark: listed apart in the source
[4] = molecular target: human neonatal Fc receptor (FcRn) (human) (UniProt P55899); experiment: SPR

Substance | serum half-life in cynomolgus monkeys, 7.5 mg/kg i.v. [1] [days] | serum half-life in hFcRn mice (mFcRn-/-, hFcRn+), 2 mg/kg i.v. [2] [days] | serum half-life in cynomolgus monkeys, 4 mg/kg i.v. [3] [days] | fold improvement in FcRn affinity [4] [fold]
Xtend-EGFR (humanized cetuximab huC225 IgG1 with the Fc substitutions M428L/N434S) (antibody) | 4.7 | 13.9 | – | –
Xtend-VEGF (bevacizumab IgG1 with the Fc substitutions M428L/N434S) (antibody) | – | 12 | 31.1 | 11

Reference: publication PMC2855492
